Data reported in a protein production outcome set (Wang et al. 2014).

Experiment: label from the status in PepcDB records

| Sequence | protein production |
| --- | --- |
| MNSIEKELDCGRSVTDQQKIEEVTRQITEHGNELRRRYPVLNYQNALGASAMAVSVTVMVVTGVLYVKGIMPAWLCILVNALSTSIIHELEHDLIHRLYFRKQPLAHNFMMLLCWLTRPGMPSPWLRRGLHFHHHKESGTATDVEAWITTSGNPWGILRLLKLMDGFLFGFVNAVCAPGWRQKMKLLARIIRLNTPFGLLYWGSWYVFLGYHLSTWLGGLAGVPPPSSPLMLQVMNMIDCVVVIVVAPNMIRQFCLYFISSNMHYYGDVAPRNALQQTQVMNHWLLWPFQLFCFNFGSTHSIHHFVVKDPFYLRQMTAPYAHEVMAKAGVRFNDFGTYKRANRFKLDTVQFQSRG | failed |
| MSLDVYVNFPADGHVREIAKTVLDGFDLHWYPDYYDAEAQVIKDRYVLGKRTKMIQAISAGVDHIDVNGIPENVVLCSNAGAYSISVAEHAFALLLAHAKNILENNELMKAGIFRQSPTTLLYGKALGILGYGGIGRRVAHLAKAFGMRVIAYTRSSVDQNVDVISESPADLFRQSDFVLIAIPLTDKTRGMVNSRLLANARKNLTIVNVARADVVSKPDMIGFLKERSDVWYLSDVWWNEPEITETNLRNAILSPHVAGGMSGEIMDIAIQLAFENVRNFFEGEGHHHHHH | not failed |
| MYRMDKYTIGLIRVITLEDKEILNLHGRIIESAFPELKVVSRCIEDQPKGIYNEETEREAEPKIIRLAKEFEREGVDAIIISCAADPAVEKVRKLLSIPVIGAGSSVSALALAYGRRVGVLNLTEETPKVIRSILGNNLIAEDHPSGVSNTLDLLTDWGRREVINAAKRLKEKGVEVIALGCTGMSTIGIAPVLEEEVGIPVIDPVIASGAVALHALKRREVKRFEGR | not failed |
| MMKETQQWTSKIGFVLAAAGAAVGLGAIWKFPYVAGNGGGGAFFLVFLLLTLFIGMPLLIAEFVIGRSTQKEAVTAYKVLVPNSKLYPWIGRMGVVTCFSVLSFYSVVGGWILLYLYYSVTGSFWNGAADYGQLFGETISNPLSAIGAQFIFMLCTIFVVSKGVEKGIEKASKYMMPLLFILFIAIIVRALTLDGAFAGVEFFLKPDFSKLTADTILYAMGQSFFSLTVGASVMVTYSSYLKKEEHLAKSATSIVSLTVFVTVLAGLAIFPAIFALGVKPTEGPGLLFIVLPAVFAKIPFGQFFFIMFLILFFFATLTSAISMLEIVVASVAKGNEKKRPSASLLIGILIFAVGIPSALSFGIMSDVKIFGKTFFDLVDFSVSNVLLPLGVLAISLFVPNKMSKELLMKELEVTETKGKTLFNIWFFLLRYVIPVTVIIVFLNAIGVFKMFA | failed |
| MIEVIILAIALSMDAFAVSIGLGATKQQSKVAPLGIIVALYFGLFQGIMPIIGYLGGKGVLSWAESYTPWIAFLLLFLIGVKMIFDSFSEGIEEDISKITHRVLLILAIATSIDAMAAGFSLTLLPVNPLIACLIIASVTFIFSWLGVLVGTKGGTWLENKAEFVGGITLIVMAIKIIITS | failed |
| MTADPTKNDPHGLGTASRPAAELAVGETETIPVIEETARIDKRVVEKGRVRVQTRTETTDDVLRETLRSDVVGVTRIPIDRVIAEGEVAPTIRTENGVTIIPVLEEVLVVEKRLILKEEVHIRQTTSGEAVEVPVTLRRQHAVVERVSADGHVSEIPPKEQTP | failed |
| MLGMGVFKQLIKGLYEWLLHSIDVATQHLVAIVLKISVVKYLIKEFHDRFIYFIDLIAQHFIIVALSSFLVLVFGVLIGVLVFYNSKARAFLLPVVNFLYTIPSLALFALFIPVIGVGLKNALLVLVLYGLLPIVHSTYNALKEVREEVIKAAIGLGCNPKELFFKVRFLLAIPQILAGLRIAVVMLVAMAGIGALIGAGGLGQAIFRGLNTQNTTLLVAGSLIIALFSVLADKFVSVFQHENALQRLFSQNATKKQKRRVYTNLAVFLFLLLASALWLIPRNAIEEKPLVVATKPSSEQYILGEILSLLLEKHHIPIKRAFGIGGGTMNIHPALIRGDFDLYVEYTGTAWVNTLKNPLTQKVDFETIKKRYEKEFNLLWVGLLGFNNTYSLAISKEDAQKYAIETFSDLAFHSPNFDFGAEFDFFEREDAFKGLVKAYRFHFRSLHEMDINLRYKSFESHKINALDVFTTDAQIKELDLKVLKDDKGFFPNYQAGIVIRKEIVKKYPEALEILEKLDSKISDEKMQDLNYQVEVLKKSPQIVAKDFLERLGL | failed |
| MRTNKDRLVRISVVGEIAPAKMRSPYSVTTEGTVRVIPVLGGITYNVKVGDSAYGWAGDHVEPGVSVMARRKEEEIPLMTLSCIGNEVIVMSGDAKGSRGFVTGKHGGVNHVLVHFEEEVLGKLMVGDKILIKAWGQGLKLLDHPDVKVMNIDPDLFEKLGIQEKNGKIHVPVVAKIPAHMMGSGIGASSSASTDYDIMASNPEDLGVADLKLGDIVAIQDHDNSYGVGKYRKGAVSIGVVVHSACVSAGHGPGVVVIMTGDESKILPEEVERANISDYLVR | not failed |
| MLLKRSLPKMRWKSWVKPWQQLDWPLFCLPVGVSIFGGLMILSTELKQPVTDWWWHWLIAGIGVFIALFLARCRYDNLLQWHWITYVLTNISLITVMAAGTSAKGAQRWLTIGGFNVQPSEFAKIGVIITLAALLHKHTATRIEDVFRALAITAIPWLLVFVQPDLATSLVFGAIVLGMLYWANANPGWLLLMISPIIAAILFTMSWPLSTPIILFKEIFITPFGVAWAIGMAILGWLTLPWRRFNMGTIGAFSLNLLGGELGIFAWNHVLKEYQKNRLTAFINPEQDPLGSGYHLIQSRIAIGAGEMWGWGLFKGPMTQLNFVPEQHTDFIFSAIGEEFGLFGCLIVLFVFCLICWRLLHVAQTAKDNFGSLLAIGVLSMIIFQLVVNVGMNVGLAPVAGIPLPWMSYGRSAMLTNFIALGIVESVANFRQRQKYYF | failed |
| MKDTLKIGLLGLGTVGTGVLTLLKEHQEKISQVTGMNVVIEKAFVRNLETKQAQAEEYGLSLTTSIDDILEDKEIQIVVELMGTIEPAKTYIMKALEKGKHIVTANKDLLAQHGSELVALAQKHHCDLYYEASVAGGIPILRTIANSLAADNIQQVLGIVNGTTNYMLTQMVSADKSYEEALAEAQALGFAEADPTNDVDGIDAAYKMVILSQFAFGMNVSLPQVDIRGIRGLSLDDVAMAKQLGYEIKLIGSAEQNENSISVEVAPMLVNQKHPIASVRNEYNAVFIKSAGVGESMYYGPGAGAKPTATSVVSDLITIAKNIRLATTGHMFNSYQHKTQLTSSENVFGQYYFSLDVPDTPGQFLQLTQLMTKAEVSFDQLVQQKSDGQRARIVAITHQISKAQMQQVVIAIQNTEAFQLLNVMKVIGDE | failed |
| MAVFHDEVEIEDFQYDEDSETYFYPCPCGDNFAITKEDLENGEDVATCPSCSLIIKVIYDKDQFMCGETV | not failed |
| MIHYYKLFWINALNIKGRARRKEFWYPFLMNILINIMLEIIFFLLPIPAIIEDTVGWIVYILILVAMFTVTVRRFHDVGMTMLIPIIIFLIAVINDFSEFINSDIPTLDNSALTVIAVIFGVVYIVILIVSLAVCCTSGQKETNQYGVNPKAVE | failed |
| MGRIIGIDLGTTTSEIAYVKDGKPCIIRNIEEGDEHAIPSVVSIEGDEIKVGKKAKNQILLKPELTVAEVKRVMGTENIIQIQGKEYRPEEISALILKKLKEVAEYFLGEEVEEAVITVPANFNDIQRKATKNAGEIAGFKVERIINEPTAAAMAYGVDNLDKNGNILVYDFGGGTFDVTILEMFNGVLDVKVSRGNNYLGGKDIDNKLIDHVVNEFNKSTGVKLDTSDSRILARLKEGVEEAKKTLSTSKMAEIVLPYISADKDNNPINLEMVLTREEFEFNVKEIIDSTEDIVNEALEDANITDNEIDTVLLVGGSSRIPYVRNMLEKRFKGKIARGVNPDEAVALGASVQAAIKNDIPVGDSGTIIVTDTCNYTLGVALKGGIFDPIIDRDSKLPANVTKRYCTVMDNQTEVLVSVYEGESRYVSDNTLIDEFILSGIPKADTGKEKIDITFTYDLNGILNVSAEILSTGDEISKIMSTKGLSKEEIQDLKEVVSSNENNNELVPWKSANLFKLVEPNFRLAERKIPMLPSADREKLQEIMSDMKDAIVDNDKMALMKLDEELTDFLFDFVN | failed |
| KNIEETELVVEEMLEQYPNGKIVRLLFHGEQAKLPIISHIVQEYQVEVSIIQGNIQQTKQGAVGSLYIQLLGEEQNILAAIEGLRKLRVETEVIGNE | not failed |
| MDLDPTLLTWAFVVGGALLMLIEAVVPGGIAFFLGIGGVVVGGLRALGLLVDPLSSVVTWVFLSTGLTIALRPLMLRFVQGDVSLAMTDEDAEAMGETVTVVEAVGPESPGRIRFRGATWDARTLEGRLPDGAEAQLLYRDNLTWVVEPADHADLDAELSAAIGSDVSEGDANRSPSTDDTTSDDSGLGYDPSARSSS | failed |
| MRKVLFTVALLLTACFVSAQVSVVKEAKSLKSKPEEAAKAIEPALTNPETANDPETWKLAGDFQKAIYDEENMKLYLPGGQADTTKLYNSLAKMYDFYLKCDEIEQAKVQSGELKKPKFRKKNADALKTLRLNLVNGGGDAYNKGDYADALKYFGLFVDVVNEPMFADDDELKADTLNALYACYATLAANMLKDNQAVIKYGNIGKNHKEEGYRALMCLAETYGQKEGGDSAKWLEVIKEGTESFPKQEYFVGNIMDYYIQKGMVDEGLAQINKLLATSETPYYLYVKGILLYEKKQYDDAVAIFNKIISNNGDLVAEAYSKIGDCYFFPAQIIVEENAKLAIDDPKYNENENKIKELYEKAKPYYEKAKELKPDNKALWGNYLLNIYWKLNRAEYDSLEKELGY | failed |
| MTGEWKECKLREIASEIKSGGTPSTKHQEYYGGIIPWLNTKEIHFNRIRDTDIKITEGGLNNSSAKWVKENSIIVAMYGATAGKIAINKIPLTTNQACCNITPDSEKADYNFVYYNLCHRYDELVNLSCGAAQQNLNVGLITNLDIILPPITEQCAIASVLSSLDDKIDLLHRQNKTLEAMAETLFRQWFVEEADEDWEEGFLPDEFDFTMGQSPPGTSYNQEGVGKPMFQGNADFGFRFPEERVYTTEPTRLAYPHDTLISVRAPVGAQNMAKVECCIGRGVSAFRYKANNDFYTYTYFKLRSLMDEIKKFNDEGTVFGSISKTDFLQMGIAIPPEDIIEKFEIHAKPLNDKVIENCIQIKLLEVMRDTLLPKLMSGEVRVEG | failed |
| MTWLMVAVVVVVAAAGLLRWRRPAWYWLTFGALVATVRILVRYASVMEACGLTVPPSRWRLALARMTNRPAPESRPPRILRLRPTRTGLVLRLKLQPGQDAFDVAAATDRLRHSFGVYGVTSRELRSGVVEVRMTGYDVLQRVQMPAPAEPRPMRIPVALREDGAVHYRDYRAVPHGLTLGATESGKSVYQRNLVAGLAPHHVALVGIDCKQGVELFPLARRFSALADNPDTALDLLEALVGHMKDVYQLIRAEQRISVAVPDAEIAADIWDLREDLRAVPVVVLVDEVAELALFASKDEEKRRDRIITALVRLAQLGRAAGIYLEICGQRFGSELGKGITMLRAQLTGRTAHRVNDETSADMAFGDLSPDAVLAAIQLPTDTPGIAVTGDSTGGWARIRAPHTTKSFPDRQKRLAELWLIEIASDMSRGRYVDPRAARVTFKGYAVKWLETHGIDPASQVVVEQRLRLHAFRLIGSRPLDSFRPEHIRGLVSALENDPAVSGGYARNIYGDVRAVLSAAVDDGLLPRNPCSAKSVRPPAVEQRRVVPWLPEQVQAVRAALPQRYRPMVDMGAGCGLRQGEIVGLAEDAVDFASGIVRVLRQVKLIRGKAVFAPPKCNKERDVPLPPSVADALPAHMDAFKPVEITLPWRKPDGPKVSARLLFTNTASGLVWRSNFNVQEWKPALAAAGLISEAGADGKYESAREHGMHALRHFYASVLLDAGESIKAVSEYLGHADPGLTLRVYAHLMPSSQERTRSAIDQSLRFSG | failed |
| MANSETSLQARLWKTLSQSPDVRLWRNNVGTCKAADGRFVRFGLCPGSSDLIGLTRVTITPDMVGQTIALFTAIEVKTPTGRVTPEQQSFIDFVQRSGGRAGVARSMQDANKIISGEGHVLEHHHHHH | failed |
